# In patent CN114573694A (SHENZHEN HUAJI BIOTECHNOLOGY CO LTD; UNIV SHANGHAI TRAFFIC, dated 2022):
# Where a chain is given by its changes, count along the chain named.
# B1: anti-IL13Rα2 monoclonal antibody mAb15D8 (mouse, from hybridoma) (antibody, mouse IgG1, kappa, V domains shown)
# VH: QVTLKESGPGILQPSQTLSLTCSFSGFSLSPSGMGVSWIRQPSGKGLEWLAHIYWDDDKLYNPSLKSRLTISKDTSSNQVFLKITSVDTADTATYYCARRGLRLRAMDYWGQGTSVTVSS
# VL: DIVLTQSPASLAVSLGQRATISCRASESVDSYGNSFMHWYQQKPGQPPKLLIYRTSNLESGIPARFSGSGSRTDFTLTINPVEADDVATYYCQQSNEDPFTFGSGTKLEIKR
# notes: Purified on Protein G; also called m15D8; 单克隆抗体15D8
# B2: recombinantly expressed monoclonal antibody mAb15D8 (293F cells transiently transfected with p15D8MusE) (antibody, mouse IgG1, kappa, V domains shown)
# VH: B1 VH
# VL: B1 VL
# notes: also called 重组表达单克隆抗体mAb15D8; 重组表达抗体
# Assays:
# [1] = target: T1, IL13Rα2 expressed in lung cancer cells A549 and H460 (fixed, permeabilised cells) (UniProt Q14627 27-380, limits assumed); assay: immunofluorescence on fixed, permeabilised cells
# T1 construct: whole, on cells; A549 and H460 are human lung cancer lines; also called A549和H460细胞中的IL13Rα2
# T1 sequence (looked up): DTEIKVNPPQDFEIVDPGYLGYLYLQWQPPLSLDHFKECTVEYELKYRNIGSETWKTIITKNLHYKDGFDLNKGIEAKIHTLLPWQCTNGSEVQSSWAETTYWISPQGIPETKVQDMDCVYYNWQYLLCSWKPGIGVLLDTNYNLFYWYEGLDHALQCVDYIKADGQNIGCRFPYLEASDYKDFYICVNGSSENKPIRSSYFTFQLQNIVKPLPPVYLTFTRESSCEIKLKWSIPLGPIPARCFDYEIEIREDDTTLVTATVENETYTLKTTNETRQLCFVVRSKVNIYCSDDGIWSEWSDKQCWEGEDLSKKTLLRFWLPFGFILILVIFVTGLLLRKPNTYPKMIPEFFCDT
# [2] = target: T2, IL13Rα2 glycine-scan mutant EP3 (human, UniProt Q14627 27-343); assay: Western blot, glycine scan mutants
# T2 construct: The changed residues (63-65) are inferred in the same way as for EP1
# T2 chain: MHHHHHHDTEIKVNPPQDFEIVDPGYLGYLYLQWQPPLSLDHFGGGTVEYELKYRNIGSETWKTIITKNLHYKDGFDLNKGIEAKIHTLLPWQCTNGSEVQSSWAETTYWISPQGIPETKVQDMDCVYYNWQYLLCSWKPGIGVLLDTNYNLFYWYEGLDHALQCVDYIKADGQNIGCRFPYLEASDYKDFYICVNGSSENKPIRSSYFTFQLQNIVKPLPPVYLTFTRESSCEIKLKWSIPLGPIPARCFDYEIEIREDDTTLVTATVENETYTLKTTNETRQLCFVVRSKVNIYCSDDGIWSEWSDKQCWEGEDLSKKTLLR
# [3] = target: T3, IL13Rα2 glycine-scan mutant EP1 (human, UniProt Q14627 27-343, limits assumed); assay: Western blot, glycine scan mutants
# T3 chain: T2 chain with L38G, S39G, L40G, G44K, G45E, G46C
# [4] = target: T4, IL13Rα2 glycine-scan mutant EP2 (human, UniProt Q14627 27-343); assay: Western blot, glycine scan mutants
# T4 construct: The changed residues (60-62) are inferred in the same way as for EP1
# T4 chain: T2 chain with D41G, H42G, F43G, G44K, G45E, G46C
# [5] = target: T5, IL13Rα2 antigen with His tag, expressed from pMAL in E. coli (IL13Rα2-HIS) (human) (UniProt Q14627); assay: indirect ELISA, antigen coated at 3 μg/ml, serial dilutions of the antibody
# T5 sequence: T2 chain with G44K, G45E, G46C
# [6] = target: T6, IL13Rα2 deletion mutant D1-1c (15 residues …, 57-71, deleted) (human, UniProt Q14627 27-343); assay: Western blot
# T6 construct: also called 突变的IL13Rα2蛋白的D1-1c
# T6 sequence: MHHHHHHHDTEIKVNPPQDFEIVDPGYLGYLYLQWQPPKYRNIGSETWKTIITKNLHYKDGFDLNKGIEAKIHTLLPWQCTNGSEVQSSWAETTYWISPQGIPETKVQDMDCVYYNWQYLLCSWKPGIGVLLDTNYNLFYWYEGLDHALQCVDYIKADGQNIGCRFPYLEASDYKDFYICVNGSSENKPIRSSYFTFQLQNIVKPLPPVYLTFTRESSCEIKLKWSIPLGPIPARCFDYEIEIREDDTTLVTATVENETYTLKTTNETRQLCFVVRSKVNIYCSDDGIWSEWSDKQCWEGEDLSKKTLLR
# [7] = target: T7, IL13Rα2 antigen with His tag, expressed from pMAL in E. coli (IL13Rα2-HIS) (human, UniProt Q14627 27-343); assay: Western blot (Fig. 24)
# T7 construct: Purified on Ni-NTA; also called IL13Rα2抗原; pMAL-IL13Rα2
# T7 sequence: T2 chain with G44K, G45E, G46C
Binder,binding result [1],binding result [2],binding result [3],binding result [4],效价 (titer) (fold dilution) [5],binding result [6],binding result [7]
B1,binds,no binding,no binding,no binding,> 10000,no binding,–
B2,–,–,–,–,–,–,binds
